Blank lines part the entries; values can stand above or below the binder they belong to.
What was measured:
cIAP1 [1] = molecular target: T1, cIAP1 (human, UniProt Q13490 1-618, limits assumed); assay: DR5 co-IP and Western blot with anti-DDX3 and anti-cIAP1 antibody
T1 construct: also called DR5-associated cIAP1; purified cIAP1

human DR5 (full-length) [2] = molecular target: T2, human DR5 (full-length) (human, UniProt O14763 56-440); assay: co-immunoprecipitation using TRA-8, transfected HEK293A cells
T2 construct: whole, on cells; Whole receptor on cells (flow cytometry) or in cell lysates (co-immunoprecipitation); also called TRAIL-R2; wild-type DR5
Description: (§1) After 24 hours following transfection, protein expression was determined by Western blot analysis using respective monoclonal antibody. For co-immunoprecipitation analysis, cells were lysed with immunoprecipitation-lysis buffer containing a protease inhibitor cocktail.
(§2) The composition of the DR5 DISC was determined as follows. […] The DR5 DISC was then precipitated overnight at 4° C. with 30 μl beads. After immunoprecipitation, the beads were washed four times with lysis buffer. The beads were then washed five times with 10 mM Tris buffer and resuspended in loading buffer for SDS-PAGE and immunoblotting analyses.

cIAP1 [3] = molecular target: T1, cIAP1; assay: co-immunoprecipitation, transfected HEK293A cells
Description: as §1

human DR5 (full-length) [4] = molecular target: T2, human DR5 (full-length); assay: co-immunoprecipitation and Western blot with anti-6-His antibody, transfected MDA231 cells
Description: as §2

human DR5 (full-length) [5] = molecular target: T2, human DR5 (full-length); assay: cell-based or functional assay
human DR5 (full-length) [6] = molecular target: T2, human DR5 (full-length); assay: cell-based or functional assay; remark: listed apart in the source

T1 sequence (Q13490 whole entry): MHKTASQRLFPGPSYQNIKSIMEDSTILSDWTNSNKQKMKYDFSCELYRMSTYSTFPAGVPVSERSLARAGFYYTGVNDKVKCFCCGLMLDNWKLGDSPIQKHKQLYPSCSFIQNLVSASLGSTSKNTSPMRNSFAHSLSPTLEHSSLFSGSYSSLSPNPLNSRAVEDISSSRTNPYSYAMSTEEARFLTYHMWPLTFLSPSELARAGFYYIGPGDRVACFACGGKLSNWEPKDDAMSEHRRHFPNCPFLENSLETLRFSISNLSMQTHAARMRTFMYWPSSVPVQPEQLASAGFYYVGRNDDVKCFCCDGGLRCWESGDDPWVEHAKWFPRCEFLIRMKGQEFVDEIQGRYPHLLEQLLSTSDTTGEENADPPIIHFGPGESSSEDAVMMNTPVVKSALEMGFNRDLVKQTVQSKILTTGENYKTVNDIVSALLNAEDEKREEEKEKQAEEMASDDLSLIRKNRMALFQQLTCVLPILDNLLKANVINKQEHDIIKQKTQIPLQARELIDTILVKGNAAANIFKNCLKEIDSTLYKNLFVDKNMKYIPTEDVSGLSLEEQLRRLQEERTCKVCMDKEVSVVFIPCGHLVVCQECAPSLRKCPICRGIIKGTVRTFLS

B2: DDX3Δ1-350 (other, human, UniProt O00571 1-350, looked up, not shown: small tags and cut ends)
chain: MSHVAVENALGLDQQFAGLDLNSSDNQSGGSTASKGRYIPPHLRNREATKGFYDKDSSGWSSSKDKDAYSSFGSRSDSRGKSSFFSDRGSGSRGRFDDRGRSDYDGIGSRGDRSGFGKFERGGNSRWCDKSDEDDWSKPLPPSERLEQELFSGGNTGINFEKYDDIPVEATGNNCPPHIESFSDVEMGEIIMGNIELTRYTRPTPVQKHAIPIIKEKRDLMACAQTGSGKTAAFLLPILSQIYSDGPGEALRAMKENGRYGRRKQYPISLVLAPTRELAVQIYEEARKFSYRSRVRPCVVYGGADIGQQIRDLERGCHLLVATPGRLVDMMERGKIGLDFCKYLVLDEAD
notes: range 1-350; Name read as the residues kept; also called C-terminal deleted DDX3
- binding result (human DR5 (full-length) [2]): no binding

B4: His-tagged DDX3 C-terminal fragment (amino acids 310-662) (other)
chain: HHHHHHIRDLERGCHLLVATPGRLVDMMERGKIGLDFCKYLVLDEADRMLDMGFEPQIRRIVEQDTMPPKGVRHTMMFSATFPKEIQMLARDFLDEYIFLAVGRVGSTSENITQKVVWVEESDKRSFLLDLLNATGKDSLTLVFVETKKGADSLEDFLYHEGYACTSIHGDRSQRDREEALHQFRSGKSPILVATAVAARGLDISNVKHVINFDLPSDIEEYVHRIGRTGRVGNLGLATSFFNERNINITKDLLDLLVEAKQEVPSWLENMAYEHHYKGSSRGRSKSSRFSGGFGARDYRQSSGASSSSFSSSRASSSRSGGGGHGSSRGFGGGGYGGFYNSDGYGGNYNSQGVDWWGN
notes: also called C-terminal deletion mutant
- binding result (human DR5 (full-length) [4]): no binding

B5: TRA-8 (anti-human DR5 monoclonal antibody) (antibody, V domains shown)
VH: EVMLVESGGGLVKPGGSLKLSCAASGFTFSSYVMSWVRQTPEKRLEWVATISSGGSYTYYPDSVKGRFTISRDNAKNTLYLQMSSLRSEDTAMYYCARRGDSMITTDYWGQGTTLTVSS
VL: DIVMTQSHKFMSTSVGDRVSITCKASQDVGTAVAWYQQKPGQSPKLLIYWASTRHTGVPDRFTGSGSGTDFTLTISNVQSEDLADYFCQQYSSYRTFGGGTKLEIKR
- IC50 of TRA-8 cytotoxicity (ATP cell viability), 2LMP cells (human DR5 (full-length) [5]): 0.0011 µg/mL
- IC50 of TRA-8 cytotoxicity (ATP cell viability), BT-20 cells (human DR5 (full-length) [5]): 0.048 µg/mL
- IC50 of TRA-8 cytotoxicity (ATP cell viability), BT-549 cells (human DR5 (full-length) [5]): 0.018 µg/mL
- IC50 of TRA-8 cytotoxicity (ATP cell viability), HCC38 cells (human DR5 (full-length) [5]): 0.0009 µg/mL
- IC50 of TRA-8 cytotoxicity (ATP cell viability), HCC1143 cells (human DR5 (full-length) [5]): > 1 µg/mL
- IC50 of TRA-8 cytotoxicity (ATP cell viability), HCC1187 cells (human DR5 (full-length) [5]): 0.024 µg/mL
- IC50 of TRA-8 cytotoxicity (ATP cell viability), HCC1599 cells (human DR5 (full-length) [5]): > 1 µg/mL
- IC50 of TRA-8 cytotoxicity (ATP cell viability), HCC1937 cells (human DR5 (full-length) [5]): > 1 µg/mL
- IC50 of TRA-8 cytotoxicity (ATP cell viability), MDA-MB-152 cells (human DR5 (full-length) [5]): 0.012 µg/mL
- IC50 of TRA-8 cytotoxicity (ATP cell viability), MDA-MB-231 cells (human DR5 (full-length) [5]): 0.018 µg/mL
- IC50 of TRA-8 cytotoxicity (ATP cell viability), MDA-MB-436 cells (human DR5 (full-length) [5]): 0.0032 µg/mL
- IC50 of TRA-8 cytotoxicity (ATP cell viability), MDA-MB-468 cells (human DR5 (full-length) [5]): 0.017 µg/mL
- IC50 of TRA-8 cytotoxicity (ATP cell viability), SUM102 cells (human DR5 (full-length) [5]): 0.0045 µg/mL
- IC50 of TRA-8 cytotoxicity (ATP cell viability), SUM149 cells (human DR5 (full-length) [5]): 0.0009 µg/mL
- IC50 of TRA-8 cytotoxicity (ATP cell viability), SUM159 cells (human DR5 (full-length) [5]): 0.0019 µg/mL
- IC50 of TRA-8 cytotoxicity (ATP cell viability), BT-474 cells (human DR5 (full-length) [6]): > 1 µg/mL
- IC50 of TRA-8 cytotoxicity (ATP cell viability), DY36T2 (MDA-MB-361 subclone) cells (human DR5 (full-length) [6]): > 1 µg/mL
- IC50 of TRA-8 cytotoxicity (ATP cell viability), MCF-7 cells (human DR5 (full-length) [6]): > 1 µg/mL
- IC50 of TRA-8 cytotoxicity (ATP cell viability), MDA-MB-134 cells (human DR5 (full-length) [6]): > 1 µg/mL
- IC50 of TRA-8 cytotoxicity (ATP cell viability), MDA-MB-453 cells (human DR5 (full-length) [6]): > 1 µg/mL
- IC50 of TRA-8 cytotoxicity (ATP cell viability), SK-BR-3 cells (human DR5 (full-length) [6]): > 1 µg/mL
- IC50 of TRA-8 cytotoxicity (ATP cell viability), T-47D cells (human DR5 (full-length) [6]): > 1 µg/mL
- IC50 of TRA-8 cytotoxicity (ATP cell viability), ZR-75-1 cells (human DR5 (full-length) [6]): 0.683 µg/mL
- IC50 of TRA-8 cytotoxicity (ATP cell viability), ZR-75-30 cells (human DR5 (full-length) [6]): > 1 µg/mL

Now from value to binder:

- binding result (cIAP1 [1]): no binding
B1: DDX3ΔCARD (DDX3Δ151-662) (other, human, UniProt O00571 151-662, looked up, not shown: small tags and cut ends)
chain: FSGGNTGINFEKYDDIPVEATGNNCPPHIESFSDVEMGEIIMGNIELTRYTRPTPVQKHAIPIIKEKRDLMACAQTGSGKTAAFLLPILSQIYSDGPGEALRAMKENGRYGRRKQYPISLVLAPTRELAVQIYEEARKFSYRSRVRPCVVYGGADIGQQIRDLERGCHLLVATPGRLVDMMERGKIGLDFCKYLVLDEADRMLDMGFEPQIRRIVEQDTMPPKGVRHTMMFSATFPKEIQMLARDFLDEYIFLAVGRVGSTSENITQKVVWVEESDKRSFLLDLLNATGKDSLTLVFVETKKGADSLEDFLYHEGYACTSIHGDRSQRDREEALHQFRSGKSPILVATAVAARGLDISNVKHVINFDLPSDIEEYVHRIGRTGRVGNLGLATSFFNERNINITKDLLDLLVEAKQEVPSWLENMAYEHHYKGSSRGRSKSSRFSGGFGARDYRQSSGASSSSFSSSRASSSRSGGGGHGSSRGFGGGGYGGFYNSDGYGGNYNSQGVDWWGN
notes: also called dominant negative mutant DDX3 lacking amino acids 1-150; truncated DDX3

- binding result (cIAP1 [3]): no binding
B3: DDX3Δ101-662 (other)
chain: HHHHHHRSDYDGIGSRGDRSGFGKFERGGNSRWCDKSDEDDWSKPLPPSERLEQELFSGGNTGINFEKYDDIPVEATGNNCPPHIESFSDVEMGEIIMGNIELTRYTRPTPVQKHAIPIIKEKRDLMACAQTGSGKTAAFLLPILSQIYSDGPGEALRAMKENGRYGRRKQYPISLVLAPTRELAVQIYEEARKFSYRSRVRPCVVYGGADIGQQIRDLERGCHLLVATPGRLVDMMERGKIGLDFCKYLVLDEADRMLDMGFEPQIRRIVEQDTMPPKGVRHTMMFSATFPKEIQMLARDFLDEYIFLAVGRVGSTSENITQKVVWVEESDKRSFLLDLLNATGKDSLTLVFVETKKGADSLEDFLYHEGYACTSIHGDRSQRDREEALHQFRSGKSPILVATAVAARGLDISNVKHVINFDLPSDIEEYVHRIGRTGRVGNLGLATSFFNERNINITKDLLDLLVEAKQEVPSWLENMAYEHHYKGSSRGRSKSSRFSGGFGARDYRQSSGASSSSFSSSRASSSRSGGGGHGSSRGFGGGGYGGFYNSDGYGGNYNSQGVDWWGN
notes: also called DDX3 with the first 100 amino acids deleted; DN
